# Reference: patent US20260008815A1, “CYCLIC PEPTIDE OR SALT THEREOF, AND USES THEREOF” (FUJIFILM Corporation, priority 2023, published 2026)
# Numbered stars: 1 amine (or outer) side, 2 acyl side, 3 side chain; on linkers, the order of the positions; unused ones are H or OH. Bridge positions count the residues as written; N and C are the ends. Square brackets hold non-standard residues; d marks the D form. Ends that are not written are not given here. acetyl = acetyl (haloacetyl before ring closure) on the side-chain amine, O=C(C[*:1])[*:2]; COCH2 = acetyl group that carries the bridge; hCys = N[C@@H](CCS)C(=O)O
# Assays:
# [1] = biological target: T1, Recombinant Human FGFR2 alpha (IIIc) Fc Chimera Protein (Homo sapiens, UniProt P21802); test: SPR binding affinity of chemically synthesized cyclic peptide to immobilized FGFR; conditions: SPR binding amount at 10 nmol/L cyclic peptide, 25° C., per one molecule of FGFR; chemically synthesized product
# T1 construct: Fc (chimera); purchased R&D systems 712-FR-050
# T1 sequence (P21802 with tags, fused parts or gaps limits assumed): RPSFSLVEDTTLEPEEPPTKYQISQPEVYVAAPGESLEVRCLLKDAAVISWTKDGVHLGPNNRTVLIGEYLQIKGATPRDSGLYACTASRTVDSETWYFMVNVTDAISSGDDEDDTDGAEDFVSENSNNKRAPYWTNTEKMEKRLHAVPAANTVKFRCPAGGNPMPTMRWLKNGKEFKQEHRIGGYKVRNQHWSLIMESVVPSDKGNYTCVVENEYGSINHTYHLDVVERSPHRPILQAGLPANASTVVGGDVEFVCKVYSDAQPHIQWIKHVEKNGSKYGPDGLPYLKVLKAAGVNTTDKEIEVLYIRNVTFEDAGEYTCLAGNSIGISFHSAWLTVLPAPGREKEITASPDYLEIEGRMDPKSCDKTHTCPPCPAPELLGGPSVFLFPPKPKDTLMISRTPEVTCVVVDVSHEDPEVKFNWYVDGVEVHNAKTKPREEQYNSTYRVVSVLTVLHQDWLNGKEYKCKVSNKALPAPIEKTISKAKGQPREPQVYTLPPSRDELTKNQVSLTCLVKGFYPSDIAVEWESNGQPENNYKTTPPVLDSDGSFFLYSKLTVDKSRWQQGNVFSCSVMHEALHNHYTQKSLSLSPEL
# Protocol: The binding affinity of the cyclic peptide to FGFR was evaluated using a surface plasmon resonance (SPR) method.
# A CM5 sensor chip (Cytiva, 29149603) was set in Biacore-T200 (manufactured by Cytiva) which is a surface plasmon resonance device, and an HBS-EP buffer (Cytiva, BR100826) was added as a running buffer at a flow rate of 10 μL/min to equilibrate the flow channel. Next, 70 μL of a mixed aqueous solution of 0.2 mol/L 1-(3-dimethylaminopropyl)-3-ethylcarbodiimide (EDC) and 0.05 mol/L N-hydroxysuccinimide (NHS) was added to activate the sensor chip. Then, Recombinant Human FGFR2 alpha (IIIc) Fc Chimera Protein CF (R&D systems, 712-FR-050) prepared at 50 nmol/L in an Acetate 4.5 buffer (Cytiva, BR100350) was added thereto to perform immobilization at about 5000 RU. Thereafter, the blocking treatment was performed with an ethanolamine solution. In addition, in another flow channel of the same sensor chip, blocking treatment was performed immediately after activation without immobilizing FGFR.
# A cyclic peptide diluted to 10 nmol/L using HBS-EP was added to each flow channel of the FGFR-immobilized sensor chip produced above at 25° C. for 10 minutes, then HBS-EP was allowed to flow as a running buffer for 30 minutes, and the binding of the cyclic peptide to FGFR was measured. Thereafter, a regeneration treatment of removing the bound cyclic peptide was performed by repeating the flow of a regeneration liquid in which sodium chloride powder was dissolved in Glysine 1.5 (Cytiva, BR100354) to a final concentration of 0.15 mol/L for 1 minute in each flow channel twice. The binding amount of the cyclic peptide was evaluated from the difference between the measured value of Biacore-T200 in the flow channel in which FGFR was immobilized and the measured value of Biacore-T200 in the flow channel in which FGFR was not immobilated, in a case where a 10 nmol/L cyclic peptide was allowed to flow.
# The binding amount of the cyclic peptide evaluated above was normalized to the binding amount of the cyclic peptide molecules per one molecule of FGFR using the molecular weights of the cyclic peptide and FGFR, and the binding affinity to FGFR was evaluated according to the following evaluation criteria. The evaluation result preferably satisfies the evaluation criteria A, B, or C.
# [2] = Molecular stability after reducing agent (DTT) treatment, LC; assay type: physicochemical; conditions: residual rate after DTT aqueous solution, room temperature, 1 hour
# Protocol: The molecular stability of the cyclic peptide was evaluated by analyzing an aqueous solution of the cyclic peptide treated with a reducing agent by liquid chromatography (LC).
# The reducing agent treatment was performed under the following conditions based on the concentration of glutathione contained in the cells. 25 μL of a 0.2 mg/mL cyclic peptide aqueous solution was prepared, 58.8 μL of a 12.6 mmol/L DTT aqueous solution was added to the aqueous solution, and the mixture was incubated at room temperature for 1 hour to obtain an aqueous solution of the cyclic peptide treated with a reducing agent. The DTT aqueous solution was used by diluting a 1 mol/L (+−)-dithiothreitol (DTT) solution (FUJIFILM Wako Pure Chemical Corporation, 044-33871) with water. The total area of all the peaks in LC/MS of the cyclic peptide before the reducing agent treatment was set to 100%, and the proportion of the total area of all the peaks in LC/MS of the aqueous solution of the cyclic peptide treated with the reducing agent was determined to calculate the residual rate of the cyclic peptide, and the molecular stability was evaluated according to the following evaluation criteria. The evaluation result preferably satisfies the evaluation criteria A, B, or C.
# The LC used for the evaluation of molecular stability was set to the following conditions. • LC device: Prominence series (pump, column oven, autosampler, detector) (manufactured by Shimadzu Corporation) • Detector: photodiode array detector (SPD-M20A), measurement wavelength of 280 nm • Column: TSKgel ODS-100V, inner diameter of 4.6 mm×length of 150 mm, particle diameter of 5 μm (manufactured by Tosoh Corporation) • Eluent A: solution containing 0.1% trifluoroacetic acid as solute, and solvent is 100% water • Eluent B: solution containing 0.1% trifluoroacetic acid as solute, and solvent is 100% acetonitrile • Flow rate: 1.0 mL/min • Injection amount: 25 μL • Gradient: 20% to 50%: Eluent B (0 to 15 minutes), 100%: Eluent B (15 minutes) • Column temperature: 40° C.
Substance,Evaluation result of binding affinity to FGFR [1],Evaluation result of reductive stability [2]
437 (QK(COCH2)PQNFINPVQWRYFQHY[hCys]NKKK; thioether 2-19 via acetyl) [compound 437],A (The binding amount is 0.7 molecules of the cyclic peptide/one molecule of FGFR or more.),A (The residual rate of cyclic peptide is 90% or more.)
438 (QK(COCH2)PQNFINPVQWRYFQHY[hCys]NKKK; thioether 2-19 via acetyl) [compound 438],A (The binding amount is 0.7 molecules of the cyclic peptide/one molecule of FGFR or more.),A (The residual rate of cyclic peptide is 90% or more.)
439 (QXPQNFINPVQWRYFQHYXNKKK; not fully specified; Description of Artificial Sequence: Cyclic peptide) [compound 439],A (The binding amount is 0.7 molecules of the cyclic peptide/one molecule of FGFR or more.),A (The residual rate of cyclic peptide is 90% or more.)
440 (QXPQNFINPVQWRYFQHYXNKKK; not fully specified; Description of Artificial Sequence: Cyclic peptide) [compound 440],A (The binding amount is 0.7 molecules of the cyclic peptide/one molecule of FGFR or more.),A (The residual rate of cyclic peptide is 90% or more.)
441 (QXPQNFINPVQWRYFQHYXNKKK; not fully specified; Description of Artificial Sequence: Cyclic peptide) [compound 441],A (The binding amount is 0.7 molecules of the cyclic peptide/one molecule of FGFR or more.),A (The residual rate of cyclic peptide is 90% or more.)
442 (YXEENYLDPEQYQYFIYFKYKKK; not fully specified; Description of Artificial Sequence: Cyclic peptide) [compound 442],A (The binding amount is 0.7 molecules of the cyclic peptide/one molecule of FGFR or more.),A (The residual rate of cyclic peptide is 90% or more.)
443 (YXEENYLDPEQYQYFIYFXYKKK; not fully specified; Description of Artificial Sequence: Cyclic peptide) [compound 443],A (The binding amount is 0.7 molecules of the cyclic peptide/one molecule of FGFR or more.),A (The residual rate of cyclic peptide is 90% or more.)
444 (YXEENYLDPEQYQYFIYFXYKKK; not fully specified; Description of Artificial Sequence: Cyclic peptide) [compound 444],B (The binding amount is 0.5 molecules of the cyclic peptide/one molecule of FGFR or more and less than 0.7 molecules of cyclic peptide/one molecule of FGFR.),A (The residual rate of cyclic peptide is 90% or more.)
446 (YKEENYLDPEQYQYFIYFXYKKK; Description of Artificial Sequence: Cyclic peptide) [compound 446],A (The binding amount is 0.7 molecules of the cyclic peptide/one molecule of FGFR or more.),A (The residual rate of cyclic peptide is 90% or more.)
447 (YXEENYLDPEQYQYFIYFXYKKK; not fully specified; Description of Artificial Sequence: Cyclic peptide) [compound 447],A (The binding amount is 0.7 molecules of the cyclic peptide/one molecule of FGFR or more.),A (The residual rate of cyclic peptide is 90% or more.)
448 (YXEENYLDPEQYQYFIYFXYKKK; not fully specified; Description of Artificial Sequence: Cyclic peptide) [compound 448],A (The binding amount is 0.7 molecules of the cyclic peptide/one molecule of FGFR or more.),A (The residual rate of cyclic peptide is 90% or more.)
449 (YXEENYLDPEQYQYFIYFXYKKK; not fully specified; Description of Artificial Sequence: Cyclic peptide) [compound 449],A (The binding amount is 0.7 molecules of the cyclic peptide/one molecule of FGFR or more.),A (The residual rate of cyclic peptide is 90% or more.)
451 (YCEENYLDPEQYQYFIYFCYKKK; disulfide 2-19) [compound 451],D (The binding amount is less than 0.1 molecules of the cyclic peptide/one molecule of FGFR.),D (The residual rate of the cyclic peptide is less than 50%)
452 (YXHENYLDPEQYQYFHYFKYKKK; Description of Artificial Sequence: Cyclic peptide) [compound 452],A (The binding amount is 0.7 molecules of the cyclic peptide/one molecule of FGFR or more.),A (The residual rate of cyclic peptide is 90% or more.)
453 (YXHENYLDPEQYQYFHYFKKKK; Description of Artificial Sequence: Cyclic peptide) [compound 453],C (The binding amount is 0.1 molecules of cyclic peptide/one molecule of FGFR or more and less than 0.5 molecules of cyclic peptide/one molecule of FGFR.),A (The residual rate of cyclic peptide is 90% or more.)
454 (XHENYLDPEQYQYFHYFKYKKK; Description of Artificial Sequence: Cyclic peptide) [compound 454],C (The binding amount is 0.1 molecules of cyclic peptide/one molecule of FGFR or more and less than 0.5 molecules of cyclic peptide/one molecule of FGFR.),B (The residual rate of the cyclic peptide is 70% or more and less than 90%)
